Data reported in US20240165165A1, “PHARMACEUTICAL COMPOSITIONS AND THEIR METHODS OF USE” (The Trustees of Indiana University, priority 2021, published 2024).

Columns and labels:
Assay type in all cases: cell-based, mouse
EO771 cells = test: Western blot of proteins in treated tumor cells
Method: (§1) Western blot analysis and mass spectrometry. Western blot analysis was conducted using known procedures. Antibodies were used against ANXA1, β-catenin, caspase 3, Lrp5, Lrp6, Runx2, Sclerostin, Snail, TGFβ, NFATc1, cathepsin K (Cell Signaling, Danvers, MA, USA), DMP1, ANXA6, CXCL5 (Abcam, Cambridge, MA, USA), M-CSF, MMP9, OPN, TPM4 (Santa Cruz, Dallas, TX, USA), WISP1 (R&D systems, Minneapolis, MN, USA), β-actin (Sigma, Saint Louis, MO, USA), LIMA1, Trail (Novus, Centennial, CO, USA), p53 and CXCL1 (Invitrogen, Carlsbad, California, USA), and DSP (ProteinTech, Rosemont, IL, USA). The expression levels of Sclerostin and Lrp5 in CM were detected by ELISA (My BioSource, San Diego, CA, USA). Proteins from A5 osteocyte CM, Y4 osteocyte CM, and osteoclast control CM (RAW264.7 cells) were analyzed by the HF Hybrid Quadrupole Orbitrap mass spectrometry. Among 549 identified proteins, 49 proteins presented higher expression levels in A5 CM than Y4 CM and control CM. Among them, 11 proteins (p53; SPARC=osteonectin; TPM1, TPM4=tropomyosin 1 & 4; ANXA1, ANXA6=annexin A1 & A6; FMOD=fibromodulin; OGN=osteoglycin; DSP=desmoplakin; AHNAK=desmoyokin; and LIMA1=LEVI domain actin-binding protein 1) were identified as potential tumor suppressors.
(§2) Western blot analysis and protein array analysis. Western blot analysis was conducted using the procedure previously described. Antibodies against Lrp5, Runx2, Snail, TGFβ, sclerostin, Calr, p-eIF2α, eIF2α (Cell Signaling, Danvers, MA, USA), LIF, Trail (Novus Biologicals, Centennial, CO, USA), MMP9, NFATc1, cathepsin K (Santa Cruz Biotechnology, Dallas, TX, USA), p53, CXCL2, Ppib (Invitrogen, Carlsbad, CA, USA), Hsp90ab1 (Abcam, Cambridge, UK), and β-actin (Sigma, Saint Louis, MO, USA) were used. A proteome profiler mouse XL cytokine array kit (R&D Systems, Minneapolis, MN, USA) was also employed, and the expression of 111 cytokines and chemokines in MSC-derived CM was determined.
Spheroid assay, plasmid transfection, and Western blot analysis. […]

[1] = system: RANKL-stimulated RAW264.7 pre-osteoclasts; test: Western blot of NFATc1 and cathepsin K
Method: as §1, with “Among them, 11 proteins (p53; SPARC=osteonectin; TPM1, TPM4=tropomyosin 1 & 4; ANXA1, ANXA6=annexin A1 & A6; FMOD=fibromodulin; OGN=osteoglycin; DSP=desmoplakin; AHNAK=desmoyokin; and LIMA1=LEVI domain actin-binding protein 1) were identified as potential tumor suppressors.” left out
Western blot analysis and protein array analysis. […] A proteome profiler mouse XL cytokine array kit (R&D Systems, Minneapolis, MN, USA) was also employed, and the expression of 111 cytokines and chemokines in MSC-derived CM was determined.
Western blot analysis. […] The protein concentration was determined using a BCA Protein Assay kit (Thermo-Fisher). […]

TRAMP cells = test: Western blot of proteins in treated tumor cells
Method: as §2
Western blot analysis. Cultured cells were lysed in a radio-immunoprecipitation assay buffer with protease inhibitors (Santa Cruz Biotechnology, Santa Cruz, CA, USA) and phosphatase inhibitors (Calbiochem, Billerica, MA, USA). The protein concentration was determined using a BCA Protein Assay kit (Thermo-Fisher). Proteins were fractionated by 10-15% SDS gels and electro-transferred to polyvinylidene difluoride transfer membranes (Millipore, Billerica, MA, USA). […] The level of proteins was determined using a SUPERSIGNAL™ west femto maximum sensitivity substrate (Thermo Scientific, Waltham, MA, USA), and a luminescent image analyzer (LAS-3000, Fuji Film, Tokyo, Japan) was used to quantify signal intensities. […]

B1: Trail: recombinant TRAIL proteins, apoptosis-inducing factor (protein, UniProt P50592 1-291, looked up)
Tumor necrosis factor ligand …: MPSSGALKDLSFSQHFRMMVICIVLLQVLLQAVSVAVTYMYFTNEMKQLQDNYSKIGLACFSKTDEDFWDSTDGEILNRPCLQVKRQLYQLIEEVTLRTFQDTISTVPEKQLSTPPLPRGGRPQKVAAHITGITRRSNSALIPISKDGKTLGQKIESWESSRKGHSFLNHVLFRNGELVIEQEGLYYIYSQTYFRFQEAEDASKMVSKDKVRTKQLVQYIYKYTSYPDPIVLMKSARNSCWSRDAEYGLYSIYQGGLFELKKNDRIFVSVTNEHLMDLDQEASFFGAFLIN
tumor-promoting/tumorigenic proteins (Lrp5, MMP9, Runx2, TGFβ, Snail, IL1β etc.) in EO771 cells (EO771 cells): reduced | NFATc1 and cathepsin K [1]: decreased | cleaved caspase 3 in TRAMP cells (TRAMP cells): increase | tumor-promoting genes (Lrp5, Runx2, MMP9, Snail, TGFβ) in TRAMP cells (TRAMP cells; Western blot): downregulated
